The results in this text go back to the supplement of paper PMC9732359.

This data set is described as follows: protein stability index of a GFP-peptide fusion (yeast GPS) (PSI 1-4); higher = more stable; sorted into four equal gates, so the index is relative within each strain. The gist of the method: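 Plasmids isolated from each sorting gate were PCR-amplified and Illumina-sequenced, and barcodes assigned the reads to strains. The gates, four of equal size, were set by GFP/Cherry fluorescence ratio on mid-log cultures in leucine-free medium. These cultures were yeast carrying a pooled library of tiled 17-residue yeast protein peptides fused downstream of GFP on a plasmid that also expresses Cherry. The protein stability index is the sum of every gate's read frequency times its gate number.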

± gives the uncertainty stated by the source.

On to FGRKKRKGGPATAEKLP [RPT2], for which the protein stability index by setting is: (doa10∆) 3.56 ± 0.089; (pdr5∆) 3.28 ± 0.12; (san1∆) 3.24 ± 0.075; (ubr1∆) 3.34 ± 0.11.
For the sequence FGRKNDRQCMIMDELLS [DIB1], the protein stability index (doa10∆) is 2.57 ± 0.047, the protein stability index (pdr5∆) turned out to be 2.65 ± 0.038, the protein stability index (san1∆) is 2.49 ± 0.057 and the protein stability index (ubr1∆) was 2.73 ± 0.034.
On the same counts, the results for FGWLLSDNSVSVRLQVT [IRR1] are 1.26 ± 0.078, 1.32 ± 0.095, 1.19 ± 0.23 and 1.13 ± 0.13.
On the same counts, the results for FHKQQAHFWKPVLNLDK [RPL28] are 2.93 ± 0.067, 3.19 ± 0.056, 2.76 ± 0.057 and 2.93 ± 0.052.
For the sequence FHVGFIAKIKKVCECVC [RPO21], the protein stability index is 1.15 ± 0.046 (doa10∆), 1.27 ± 0.064 (pdr5∆), 1.43 ± 0.11 (san1∆) and 1.26 ± 0.059 (ubr1∆).
FIESIVVDFKNKENDNV [SNF12]: the protein stability index is, setting by setting: (doa10∆) 2.55 ± 0.15; (pdr5∆) 3.04 ± 0.18; (ubr1∆) 3.03 ± 0.27.
The sequence FIKLQKIDIIELQKSLS [FAS1] gave a protein stability index (doa10∆) of 2.15 ± 0.045, a protein stability index (pdr5∆) of 2 ± 0.044, a protein stability index (san1∆) of 2.04 ± 0.059 and a protein stability index (ubr1∆) of 2.28 ± 0.047.
For the sequence FIMASVGKYDKAIELLE [SRP72], the protein stability index is, setting by setting: (doa10∆) 2.37 ± 0.12; (pdr5∆) 2.38 ± 0.11; (san1∆) 2.54 ± 0.13; (ubr1∆) 3.1 ± 0.2.
For FIPHGLKRRQVIEQCYL [SRB8], the protein stability index is, setting by setting: (doa10∆) 2.78 ± 0.074; (pdr5∆) 2.63 ± 0.08; (san1∆) 2.46 ± 0.1; (ubr1∆) 2.44 ± 0.049.
As to FIRLPHWPLNWYLILSI [RGR1], the protein stability index reads like this: (doa10∆) 1.46 ± 0.077; (pdr5∆) 1.4 ± 0.064; (san1∆) 1.33 ± 0.23; (ubr1∆) 1.37 ± 0.062.
FIRSTNSWFDVTWRTFT [FAS1]: the protein stability index is, setting by setting: (doa10∆) 1.37 ± 0.12; (pdr5∆) 1.14 ± 0.13; (ubr1∆) 1.34 ± 0.15.
As for FKFSGTVSSDVFKLNPS [YLR335W/NUP2], the protein stability index (doa10∆) worked out at 3 ± 0.29.
Regarding FKPSQEPEFHALSQSSL [RRI1], the protein stability index reads like this: (doa10∆) 2.61 ± 0.05; (pdr5∆) 2.83 ± 0.043; (san1∆) 2.8 ± 0.042; (ubr1∆) 2.42 ± 0.04.
Regarding FKTYRNETIIDNFSPHQ [SMC3], the protein stability index worked out at 1.97 ± 0.17 (doa10∆), 1.42 ± 0.18 (pdr5∆) and 2.76 ± 0.21 (san1∆).
With FKYLLGVTDLFRHFIGI [ISW2], the protein stability index came out at 2.17 ± 0.056 (doa10∆), 1.35 ± 0.048 (pdr5∆), 1.25 ± 0.12 (san1∆) and 1.3 ± 0.071 (ubr1∆).
On the same counts, the results for FLDSMAQKYASIVGVDL [FAS2] are 1.81 ± 0.051, 2.29 ± 0.048, 1.96 ± 0.057 and 2.61 ± 0.035.
As to FLDSVHKQGSSYVAVLG [POP7], the protein stability index (doa10∆) worked out at 2.6 ± 0.045, the protein stability index (pdr5∆) was found to be 2.17 ± 0.037, the protein stability index (san1∆) amounted to 2.38 ± 0.057 and the protein stability index (ubr1∆) is 2.51 ± 0.033.
On to FLERFDFYTRHHFTCEI [ITC1], for which the protein stability index reads like this: (pdr5∆) 2.26 ± 0.097; (san1∆) 2.31 ± 0.16; (ubr1∆) 2.61 ± 0.11.
As to FLGALKYLPHAILKLLE [PRP8], the protein stability index by setting is: (doa10∆) 2.12 ± 0.09; (pdr5∆) 1.82 ± 0.061; (san1∆) 2.55 ± 0.085; (ubr1∆) 2.16 ± 0.039.
On the same counts, the results for FLKLYVLVKWTRTIKQN [RGR1] are 1.41 ± 0.11, 1.85 ± 0.14, 2.38 ± 0.17 and 1.15 ± 0.091.
Take FLQDKVQIKDVNDRYQI [CSI1]: the protein stability index runs as follows: (doa10∆) 3.28 ± 0.18; (pdr5∆) 1.58 ± 0.12; (san1∆) 1.05 ± 0.17; (ubr1∆) 3.37 ± 0.21.
On the same counts, the results for FLSKPSKALYPDYYMII [SNF2] are 2.31 ± 0.037, 2.4 ± 0.045, 2.19 ± 0.047 and 2.54 ± 0.035.
Take FLTGQFASNKKINDESS [YML103C/NUP188]: the protein stability index is, setting by setting: (doa10∆) 2.23 ± 0.05; (pdr5∆) 2.23 ± 0.055; (san1∆) 2.44 ± 0.067; (ubr1∆) 2.4 ± 0.052.
Take FLWPFKLSNPSGGWGVP [RPL7A]: the protein stability index is, setting by setting: (doa10∆) 3.16 ± 0.077; (pdr5∆) 2.85 ± 0.075; (san1∆) 3.16 ± 0.1; (ubr1∆) 3.36 ± 0.14.
FNEENGEDSTKPLGPCD [POP1] registered a protein stability index (doa10∆) of 3.34 ± 0.14.
Consider FNELCDPESRTQSYNNQ [POP1], for which the protein stability index is, setting by setting: (doa10∆) 3.09 ± 0.14; (pdr5∆) 3.02 ± 0.12; (san1∆) 2.95 ± 0.11; (ubr1∆) 2.96 ± 0.084.
